According to patent US20090191187A1:

The substances below were run against human interleukin-1 receptor on cells (MRC-5 human embryonic lung fibroblasts; human blood cells) (human) (UniProt P14778) (assay: cell-based or functional assay).
Chain of human interleukin-1 receptor on cells (MRC-5 human embryonic lung fibroblasts; human blood cells) (human) (P14778 18-569): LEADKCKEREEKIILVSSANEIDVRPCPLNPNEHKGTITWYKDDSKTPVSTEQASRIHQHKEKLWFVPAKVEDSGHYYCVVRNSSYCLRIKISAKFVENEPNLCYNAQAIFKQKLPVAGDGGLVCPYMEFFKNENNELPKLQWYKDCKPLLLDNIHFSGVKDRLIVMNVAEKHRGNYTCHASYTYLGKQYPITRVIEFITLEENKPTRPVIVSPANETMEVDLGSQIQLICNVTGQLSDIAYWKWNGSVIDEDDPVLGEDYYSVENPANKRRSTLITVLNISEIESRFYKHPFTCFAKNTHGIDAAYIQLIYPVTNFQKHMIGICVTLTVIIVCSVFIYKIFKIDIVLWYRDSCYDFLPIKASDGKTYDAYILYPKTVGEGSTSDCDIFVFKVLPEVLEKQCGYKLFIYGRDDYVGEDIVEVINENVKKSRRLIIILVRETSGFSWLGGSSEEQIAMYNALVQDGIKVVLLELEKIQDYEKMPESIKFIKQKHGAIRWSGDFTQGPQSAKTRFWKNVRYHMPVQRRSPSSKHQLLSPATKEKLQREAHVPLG

“Antigenix Cat.# MC260020, clone R11 (antibody)” and “Antigenix Cat.# MC261020, clone R12 (antibody)” cannot be ordered by IC-50 (MRC-5 bioassay): greater than 100 ng/mL for the first, greater than 100 ng/mL for the second.

“BD Pharmingen Cat.# 551388, clone HIL1R-M1 (antibody)” and “Biotrend Cat.# 0100-0242, clone 49/20 (antibody)” cannot be ordered by IC-50 (MRC-5 bioassay): greater than 100 ng/mL for the first, greater than 100 ng/mL for the second.

First: Cell Sciences Cat.# CM2028, clone RMHL-1 (antibody)
Second: PBL Biomedical Laboratories Cat.# 21808-1, clone RMH1R-1 (antibody)
The IC-50 (MRC-5 bioassay) of the first is higher: greater than 100 ng/mL for the first, 33 ng/mL for the second.

“PBL Biomedical Laboratories Cat.# 21809-1, clone RMH1R-2 (antibody)” and “R&D Systems Cat.# MAB269, clone 35730 (antibody)” cannot be ordered by IC-50 (MRC-5 bioassay): greater than 100 ng/mL for the first, greater than 100 ng/mL for the second.
